From patent US7291673B2, “Conjugate addition reactions for the controlled delivery of pharmaceutically active compounds” (Eidgenossiche Technische Hochschule Zurich, priority 2000, dated 2007)
Values belong to the compound of their own block, whether it stands above or below them. Non-standard residues stand in square brackets, D forms with d. Residues, ends and D or L forms follow the SMILES beside them. No end group written: not given here.

What was measured:
[1] = system: Human foreskin fibroblasts; assay: Fibroblast adhesion and spreading on conjugate addition gels; assay type: cell-based; conditions: 6 hours post-seeding; RGD peptide on one of every 12 acrylates
Method: Conjugate addition gels were made with 0.1 g/ml PEG-2500-3A and 1.1 acrylates per sulfhydryl in […]. The gels were swollen for 24 hours in Dulbecco's modified Eagle's medium (some in serum-free conditions and some in 10% fetal bovine serum) containing 1% antibiotic and antimycotic agents. Human foreskin fibroblasts (passage 7; passaged with trypsin/EDTA) were seeded onto the gels. […] The cells became increasingly clumped together. The cellular behavior was independent of serum in the medium. Control cells seeded on tissue culture treated polystyrene spread normally.
Conjugate addition gels were made with PEG-2500-3A, […], and an RGD-containing peptide ([…]) incorporated in a pendant fashion. The gels were made with 0.1 g PEG-2500-3A/ml and 1.1 acrylates per sulfhydryl in […]. The gels were swollen for more than 36 hours in Dulbecco's modified Eagle's medium (some in serum-free conditions and some in 10% fetal bovine serum) containing 1% antibiotic and antimycotic agents. When the RGD peptide was incorporated on one of every 12 acrylates of the PEG-2500-3A, human foreskin fibroblasts (passage 8; passaged by trypsin/EDTA) adhered to the gels (both those swollen in serum-free conditions and those in serum-containing medium). At 6 hours post-seeding, the cells were uniformly distributed over the gel surface, and approximately 50% of the seeded cells were spread (in both medium conditions). […]

[2] = system: human umbilical vein endothelial cells; assay: Endothelial cell spreading on photopolymerized PEG gels containing peptides; assay type: cell-based; conditions: 400 cells per mm^2; normal cell culture medium
Method: Polyethylene glycol diacrylate of mol. wt. 8000 (230 mg/ml) was allowed to dissolve in HEPES buffered saline (10 mmol HEPES, Sigma, 8 g/L NaCl, pH 7.4) for one hour. Triethanolamine (Aldrich, 15.3 μl/ml) was added, and the pH of the solution was adjusted to pH 8 with 6 N HCl. Cysteine containing peptides were dissolved in 116.5 μl of HEPES buffered saline, and added to 870 μl of the PEG solution with vortexing. After 5 minutes, 3.5 μl of N-vinyl pyrrolidone and 10 μl of a 10 mM solution of Eosin Y were added, followed by vortexing. Gels were formed by exposure to light at 75 mW/cm^2 for one minute (Cermax Xenon Lightsource, transmitting light between 470 and 520 nm; ILC Technology, Sunnyvale, Calif., USA). Gels were allowed to swell in Tris buffered saline, pH 7.4 (4.36 g Tris HCl, 0.64 g Trizma base, 8 g NaCl, 0.2 g KCl per 1 L, all from Sigma) for 36 hr.
PEG gels were prepared as described above, using the peptide […]. Most cells have receptors that recognize the sequence GRGDSPG (SEQ ID NO: 74), and cells will interact with surfaces displaying immobilized RGD containing peptides. […] Cells were seeded onto the gels at a concentration of 400 cells per mm^2, and the number of spread cells per area were counted at different times (see FIG. 6). […]

[3] = Dissolution of albumin particles in PEG solutions; assay type: physicochemical
Excerpt: For the gels in which controlled release was observed, protein particles could be seen within the gels for the entire period of release. For all gels, the disappearance of protein particles from the gel was coincident with the completion of delivery of greater than 90% of the protein in the gel. Thus, the solubility of bovine serum albumin in PEG-containing solutions was likely the most important factor in realizing controlled release of the protein. When a solution containing dissolved albumin was mixed with a solution containing dissolved PEG, the albumin precipitated, dependent upon the concentrations and the molecular weight of the PEG. Similarly, when particles of bovine serum albumin were added to a PEG solution, the kinetics of dissolution of the albumin were strongly affected by the presence of PEG. The albumin solids completely dissolved in 50 mM PBS buffer, pH 7.4 in three minutes in the absence of PEG. With 10% PEG molecular weight 8000 in solution, the time to dissolution of the albumin particles increased to six minutes. […] With 20% PEG molecular weight 8000, the protein particles dissolved to form a second liquid phase within one hour. This was presumably a true coacervate with one protein-rich, polymer-poor phase, and one polymer-rich, protein-poor phase.

[4] = cited from earlier work
[5] = biological target: T1, Collagenase (Matrix metalloproteinase I) (Homo sapiens, UniProt P03956); conditions: cited from earlier work
T1 sequence (P03956 100-469): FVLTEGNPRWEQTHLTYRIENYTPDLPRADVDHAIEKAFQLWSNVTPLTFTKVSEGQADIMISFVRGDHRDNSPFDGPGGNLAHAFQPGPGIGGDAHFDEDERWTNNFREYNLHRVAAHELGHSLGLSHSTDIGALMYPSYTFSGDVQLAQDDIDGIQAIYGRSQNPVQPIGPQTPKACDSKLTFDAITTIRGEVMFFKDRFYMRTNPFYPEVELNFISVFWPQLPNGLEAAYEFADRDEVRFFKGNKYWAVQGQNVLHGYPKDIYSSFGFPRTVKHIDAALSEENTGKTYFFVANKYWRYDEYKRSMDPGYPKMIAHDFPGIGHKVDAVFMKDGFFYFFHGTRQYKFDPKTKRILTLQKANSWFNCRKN

[6] = Water solubility of peptide; assay type: physicochemical
Method: The peptide […] (SEQ ID NO: 58) was designed to be sensitive to hydrolysis by the enzyme plasmin, to contain more than one thiol (cysteine) for addition reaction with conjugated unsaturated groups, and to be very water soluble. The peptide was synthesized according to the methods described above. The peptide was extremely water soluble, up to at least 120 mg/ml.

plasmin = plasmin (Homo sapiens, UniProt P00747); assay: Plasmin stability of peptides by analytical C18 HPLC; assay type: biochemical; conditions: 37° C.; plasmin at 1/1000 the peptide concentration
Excerpt: Analytical C18 HPLC (linear acetonitrile gradient over 0.1% TFA in water) was used to confirm the relative plasmin-stability of GCY-DLys-N-DArg-DCG. The following samples were run: plasmin; […]; plasmin+[…]; GCY-DLys-N-DArg-DCG; and plasmin+GCY-DLys-N-DArg-DCG.

Sequence of plasmin (P00747 581-810 limits assumed, species assumed): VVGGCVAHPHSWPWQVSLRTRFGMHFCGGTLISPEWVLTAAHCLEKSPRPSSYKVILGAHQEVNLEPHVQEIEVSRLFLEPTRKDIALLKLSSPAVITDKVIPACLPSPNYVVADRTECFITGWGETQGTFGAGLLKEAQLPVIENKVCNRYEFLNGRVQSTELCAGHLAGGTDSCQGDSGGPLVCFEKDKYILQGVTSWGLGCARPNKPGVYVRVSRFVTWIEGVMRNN
Sequence of plasmin (P00747 97-580 partner limits assumed, species assumed): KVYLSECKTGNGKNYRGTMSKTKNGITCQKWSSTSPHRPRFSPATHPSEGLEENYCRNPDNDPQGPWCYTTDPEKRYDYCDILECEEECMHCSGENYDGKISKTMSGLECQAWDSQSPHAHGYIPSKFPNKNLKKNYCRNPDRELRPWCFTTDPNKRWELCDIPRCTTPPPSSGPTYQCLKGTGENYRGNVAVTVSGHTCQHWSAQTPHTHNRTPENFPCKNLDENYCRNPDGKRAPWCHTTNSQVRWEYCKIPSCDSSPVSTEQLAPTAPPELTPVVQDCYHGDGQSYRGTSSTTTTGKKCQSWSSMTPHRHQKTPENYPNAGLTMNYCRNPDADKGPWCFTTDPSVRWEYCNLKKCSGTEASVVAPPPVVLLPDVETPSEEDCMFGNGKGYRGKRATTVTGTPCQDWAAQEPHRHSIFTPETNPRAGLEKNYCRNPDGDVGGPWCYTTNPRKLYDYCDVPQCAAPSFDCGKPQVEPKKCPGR

Compound: GCGYGRGDSPG (not fully specified) [RGD-containing adhesion peptide incorporated into gels in a pendant fashion]
seeded cells spread [1]: approximately 50%
cell spreading on PEG gels containing peptide [2]: Cells could only spread on gels that contained the peptide

Compound: albumin: bovine serum albumin (Cohn fraction V), model protein
time to complete dissolution of albumin solids ([3]; 50 mM PBS buffer, pH 7.4, absence of PEG): three
time to dissolution of albumin particles ([3]; 10% PEG molecular weight 8000): six
time to dissolve into a second liquid phase ([3]; 20% PEG molecular weight 8000): one
dissolution of protein ([3]; 30 or 40% PEG molecular weight 8000): did not dissolve after seven days

Compound: NCCCC[C@H](N)C(=O)O [lysine]
pK of side chain epsilon amine ([4]; side chain epsilon amine): 10.80

Compound: GPQGIWGQ
kcat/Km relative to that of PQGIAG [5]: >700% (very fast)

Compound: GCGYGRDGSPG (Based on Homo sapiens)
cell spreading on PEG gels containing peptide [2]: has no biological activity

Compound: GPQGVAGQ
kcat/Km relative to that of PQGIAG [5]: 9% (slower)

Compound: GPQGRAGQ
kcat/Km relative to that of PQGIAG [5]: <5% (very slow)

Compound: GPQGIAGQ
kcat/Km relative to that of PQGIAG [5]: 100% (normal)

Compound: GPQGIFGQ
kcat/Km relative to that of PQGIAG [5]: >300% (faster)

solubility [6]: ≥ 120 mg/mL
Compound: N=C(N)NCCC[C@H](NC(=O)[C@H](CC(N)=O)NC(=O)[C@H](CCCCN)NC(=O)[C@H](Cc1ccc(O)cc1)NC(=O)[C@H](CS)NC(=O)CN)C(=O)N[C@@H](CC(=O)O)C(=O)N[C@@H](CS)C(=O)NCC(=O)O (H-GCYKNRDCG-OH; N-terminus and C-terminus assumed)

Compound: NC(=O)C[C@H](N)C(=O)O [asparagine]
pK of alpha amine ([4]; alpha amine of amino acid): 8.8

Compound: GPQGIASQ
kcat/Km relative to that of PQGIAG [5]: 130% (fast)

Compound: GPVGIAGQ
kcat/Km relative to that of PQGIAG [5]: 30% (slow)

degradation of peptide by plasmin (plasmin): unaffected by the plasmin at 24 hours
Compound: GCY-DLys-N-DArg-DCG (GCY[dK]N[dR]DCG; cysteine pairing not given here)
